In patent US20160159910A1 (Genentech, published 2016):
One block for each binder: values may come before it.

What was measured:
human B7-H4 [1] = molecular target: T1, human B7-H4 (human, UniProt Q7Z7D3 29-282); assay: cell-based or functional assay
T1 sequence: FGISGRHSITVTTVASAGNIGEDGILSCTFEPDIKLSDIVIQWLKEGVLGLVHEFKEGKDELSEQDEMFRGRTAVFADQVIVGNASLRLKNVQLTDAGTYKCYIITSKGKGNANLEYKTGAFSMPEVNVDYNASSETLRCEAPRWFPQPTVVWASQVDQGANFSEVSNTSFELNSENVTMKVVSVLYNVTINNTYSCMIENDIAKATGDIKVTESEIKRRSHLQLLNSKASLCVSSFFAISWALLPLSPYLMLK

mouse B7-H4 [2] = molecular target: T2, mouse B7-H4 (mouse, UniProt Q7TSP5 29-283); assay: FACS titration on 293 cells expressing recombinant mouse B7-H4 (panel '293-mouse B7-H4', lower block), geometric mean fluorescence
T2 construct: On stably transfected 293 cells; also called muB7-H4; recombinant mouse B7-H4
T2 sequence: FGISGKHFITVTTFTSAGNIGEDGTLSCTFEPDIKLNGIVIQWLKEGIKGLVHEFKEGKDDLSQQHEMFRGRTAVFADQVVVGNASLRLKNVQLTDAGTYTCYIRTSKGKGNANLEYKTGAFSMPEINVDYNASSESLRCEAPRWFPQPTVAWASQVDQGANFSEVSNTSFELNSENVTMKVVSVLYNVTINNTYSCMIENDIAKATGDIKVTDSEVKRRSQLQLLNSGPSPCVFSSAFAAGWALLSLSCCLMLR
Description: (§1) The fluorescent signal was acquired with a BD FACS Calibur and EC₅₀ values were determined with the Graph Pad program Prism 4.

human B7-H4 [3] = molecular target: T1, human B7-H4; assay: FACS titration on 293 cells expressing recombinant human B7-H4 (panel '293-human B7-H4', lower block), Dylight-650 goat anti-human IgG, geometric mean fluorescence
Description: as §1

cynomolgus monkey B7-H4 [4] = molecular target: T3, cynomolgus monkey B7-H4 (cynomolgus monkey, UniProt Q7Z7D3 29-282 (human entry)); assay: FACS titration on 293 cells expressing recombinant cynomolgus B7-H4 (panel '293-cyno B7-H4', lower block), geometric mean fluorescence
T3 construct: On stably transfected 293 cells; also called cyno B7-H4; recombinant cynomolgus monkey B7-H4
T3 chain: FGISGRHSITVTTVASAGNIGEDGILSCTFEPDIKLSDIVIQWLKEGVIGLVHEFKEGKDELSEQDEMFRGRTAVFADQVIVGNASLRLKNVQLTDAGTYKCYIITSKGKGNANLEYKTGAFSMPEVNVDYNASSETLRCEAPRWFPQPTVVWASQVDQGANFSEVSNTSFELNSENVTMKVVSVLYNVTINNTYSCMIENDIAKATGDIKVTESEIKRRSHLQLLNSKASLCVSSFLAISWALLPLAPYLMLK
Description: as §1

human B7-H4 [5] = molecular target: T1, human B7-H4; assay: Scatchard analysis, 125I-antibody radioligand cell binding on MX-1 tumor cells
Description: (§2) Competition assay mixtures of 50 μL volume containing a fixed concentration of [I¹²⁵] labeled antibody and decreasing concentrations of serially diluted, unlabeled antibody were placed into 96-well plates. […] Cells were detached from the flask using Sigma Cell Dissociation Solution and were washed with binding buffer, which consisted of Dulbecco's Modified Eagle Medium (DMEM) with 1% bovine serum albumin (BSA), […] and 0.1% sodium azide. The washed cells were added to the 96 well plates at a density of 100,000 cells in 0.2 mL of binding buffer. The final concentration of the [I¹²⁵] labeled antibody in each well was ˜250 pM. The final concentration of the unlabeled antibody in the competition assay ranged from 1000 nM through ten 2-fold dilution steps to a 0 nM buffer-only assay. Competition assays were carried out in triplicate. Competition assays were incubated for 2 hours at room temperature. After the 2-hour incubation, the competition assays were transferred to a Millipore Multiscreen filter plate (Billerica, Mass.) and washed 4 times with binding buffer to separate the free from bound [I¹²⁵] labeled antibody. The filters were counted on a Wallac Wizard 1470 gamma counter (PerkinElmer Life and Analytical Sciences Inc.; Wellesley, Mass.). The binding data was evaluated using NewLigand software (Genentech), which uses the fitting algorithm of Munson and Robard to determine the binding affinity of the antibody (Munson and Robard 1980).

human B7-H4 [6] = molecular target: T1, human B7-H4; assay: Scatchard analysis, 125I-antibody radioligand cell binding on stably transfected 293 cells
Description: as §2

cynomolgus monkey B7-H4 [7] = molecular target: T3, cynomolgus monkey B7-H4; assay: as above
Description: as §2

mouse B7-H4 [8] = molecular target: T2, mouse B7-H4; assay: as above
Description: as §2

rat B7-H4 [9] = molecular target: T4, rat B7-H4 (rat, UniProt Q501W4 29-282); assay: as above
T4 construct: On stably transfected 293 cells; also called recombinant rat B7-H4
T4 sequence: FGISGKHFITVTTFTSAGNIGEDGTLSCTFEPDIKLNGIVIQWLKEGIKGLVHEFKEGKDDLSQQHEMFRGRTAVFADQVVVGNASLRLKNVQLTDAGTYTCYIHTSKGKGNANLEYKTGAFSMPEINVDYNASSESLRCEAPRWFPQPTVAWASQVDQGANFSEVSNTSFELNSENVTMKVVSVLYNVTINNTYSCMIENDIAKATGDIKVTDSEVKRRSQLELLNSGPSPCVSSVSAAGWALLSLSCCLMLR
Description: as §2

human B7-H4 [10] = molecular target: T1, human B7-H4; assay: FACS titration on MX-1 tumor cells, endogenous human B7-H4 (panel 'MX-1 tumor cell line', lower block), geometric mean fluorescence
Description: as §1

[11] = molecular target: T5, human B7-H4 S114A glycosylation mutant (human, UniProt Q7Z7D3 29-282); assay: FACS on 293 cells transfected with S114A human B7-H4 (glycosylation independence)
T5 construct: Full-length human B7-H4 membrane construct with S114 changed to alanine to prevent N-linked glycosylation at N112-S114; transiently expressed on 293 cells; also called mutated S114A human B7-H4; recombinant human B7-H4 S114A
T5 sequence: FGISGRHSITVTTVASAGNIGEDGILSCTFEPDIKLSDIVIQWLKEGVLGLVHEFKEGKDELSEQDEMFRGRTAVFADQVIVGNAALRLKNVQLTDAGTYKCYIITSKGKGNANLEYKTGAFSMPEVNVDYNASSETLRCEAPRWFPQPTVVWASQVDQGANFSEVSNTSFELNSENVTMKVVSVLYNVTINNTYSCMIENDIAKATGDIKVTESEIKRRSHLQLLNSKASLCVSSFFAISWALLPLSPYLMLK

human B7-H4 [12] = molecular target: T1, human B7-H4; assay: Scatchard analysis, radioligand cell binding on 293 cells expressing recombinant B7-H4
Description: as §2

cynomolgus monkey B7-H4 [13] = molecular target: T3, cynomolgus monkey B7-H4; assay: as above
Description: as §2

mouse B7-H4 [14] = molecular target: T2, mouse B7-H4; assay: as above
Description: as §2

rat B7-H4 [15] = molecular target: T4, rat B7-H4; assay: as above
Description: as §2

human B7-H4 [16] = molecular target: T1, human B7-H4; assay: Scatchard analysis, radioligand cell binding on MX-1 cells (endogenous human B7-H4)
Description: as §2, with “After the 2-hour incubation, the competition assays were transferred to a Millipore Multiscreen filter plate (Billerica, Mass.) and washed 4 times with binding buffer to separate the free from bound [I¹²⁵] labeled antibody.” left out

B1: hu22C10v2.7-vc-MMAE (antibody)
heavy: not shown
light: DIQMTQSPSSLSASVGDRVTITCSATSSISYMHWYQQKPGKAPKGWIYDTSKLAHGVPSRFSGSGSGTDFTLTISSLQPEDFATYYCHQRRSYPFTFGQGTKVEIKRTVAAPSVFIFPPSDEQLKSGTASVVCLLNNFYPREAKVQWKVDNALQSGNSQESVTEQDSKDSTYSLSSTLTLSKADYEKHKVYACEVTHQGLSSPVTKSFNRGEC
modifications: MC-vc-PAB-MMAE conjugated to reduced cysteine residues of the antibody (sites not given); DAR ~3
EC50 of in vitro killing (CellTiter-Glo cell viability, 4 days) of 293 cells over-expressing recombinant human B7-H4 (human B7-H4 [1]): 0.0339 µg/mL

B2: hu22C10v2.7 IgG1 A118C-vc-MMAE (antibody)
heavy: not shown
light: DIQMTQSPSSLSASVGDRVTITCSATSSISYMHWYQQKPGKAPKGWIYDTSKLAHGVPSRFSGSGSGTDFTLTISSLQPEDFATYYCHQRRSYPFTFGQGTKVEIKRTVAAPSVFIFPPSDEQLKSGTASVVCLLNNFYPREAKVQWKVDNALQSGNSQESVTEQDSKDSTYSLSSTLTLSKADYEKHKVYACEVTHQGLSSPVTKSFNRGEC
modifications: MC-vc-PAB-MMAE on the engineered cysteine A118C (EU numbering); DAR ~2
EC50 of in vitro killing (CellTiter-Glo cell viability, 4 days) of 293 cells over-expressing recombinant human B7-H4 (human B7-H4 [1]): 0.0405 µg/mL

B7: hu1D11v1.9-varD-vc-MMAE (antibody)
heavy: not shown
light: DIQMTQSPSSLSASVGDRVTITCKASQGFNKYVAWYQQKPGKAPKLLIYYTSTLQPGVPSRFSGSGSGRDYTLTISSLQPEDFATYYCLQYGDLLYAFGQGTKVEIKRTVAAPSVFIFPPSDEQLKSGTASVVCLLNNFYPREAKVQWKVDNALQSGNSQESVTEQDSKDSTYSLSSTLTLSKADYEKHKVYACEVTHQGLSSPVTKSFNRGEC
modifications: MC-vc-PAB-MMAE conjugated to reduced cysteine residues of the antibody (sites not given); DAR ~3
EC50 of in vitro killing (CellTiter-Glo cell viability, 4 days) of 293 cells over-expressing recombinant human B7-H4 (human B7-H4 [1]): 0.0554 µg/mL

B8: hu1D11v1.9-varD IgG1 A118C-vc-MMAE (antibody)
heavy: not shown
light: DIQMTQSPSSLSASVGDRVTITCKASQGFNKYVAWYQQKPGKAPKLLIYYTSTLQPGVPSRFSGSGSGRDYTLTISSLQPEDFATYYCLQYGDLLYAFGQGTKVEIKRTVAAPSVFIFPPSDEQLKSGTASVVCLLNNFYPREAKVQWKVDNALQSGNSQESVTEQDSKDSTYSLSSTLTLSKADYEKHKVYACEVTHQGLSSPVTKSFNRGEC
modifications: MC-vc-PAB-MMAE on the engineered cysteine A118C (EU numbering); DAR ~2
EC50 of in vitro killing (CellTiter-Glo cell viability, 4 days) of 293 cells over-expressing recombinant human B7-H4 (human B7-H4 [1]): 0.0819 µg/mL

Continued, values first:

EC50 (mouse B7-H4 [2]): 0.38 µg/mL
EC50 (human B7-H4 [3]): 0.96 µg/mL
EC50 (cynomolgus monkey B7-H4 [4]): 0.66 µg/mL
Kd (human B7-H4 [5]): 7.8 nM
Kd (human B7-H4 [6]): 6.1 nM
Kd (cynomolgus monkey B7-H4 [7]): 4.1 nM
Kd (mouse B7-H4 [8]): 9.4 nM
Kd (rat B7-H4 [9]): 4.1 nM
EC50 (human B7-H4 [10]): 0.67 µg/mL
B3: chimeric antibody ch1D11 (antibody, human IgG1, V domains shown)
VH: QVQLQQSGAELVRPGTSVKMSCKASGYTFTSYWIGWAKQRPGHGFEWIGDIYPGGGYTNYNEKFKGKATLTADKSSSTAYMQFSSLTSEDSAIYYCARLDGSSYRGAMDSWGQGTSITVSS
VL: DIQMTQSPSSLSASLGGKVTITCKASQGFNKYVAWYQHKPGQCPRLLIHYTSTLQPGIPARFSGSGSGRDYSFSISNLEPEDSATYFCLQYGNLLYAFGGGTKLEIKR
notes: also called parental 1D11 antibody; antibody 1D11

fold binding over the isotype control [11]: 100 fold
B4: ch1D11, slightly modified version with light chain C43G (antibody, V domains shown)
VH: QVQLQQSGAELVRPGTSVKMSCKASGYTFTSYWIGWAKQRPGHGFEWIGDIYPGGGYTNYNEKFKGKATLTADKSSSTAYMQFSSLTSEDSAIYYCARLDGSSYRGAMDSWGQGTSITVSS
VL: DIQMTQSPSSLSASLGGKVTITCKASQGFNKYVAWYQHKPGQGPRLLIHYTSTLQPGIPARFSGSGSGRDYSFSISNLEPEDSATYFCLQYGNLLYAFGGGTKLEIKR
notes: Human IgG1 / human kappa chimeric antibody; Dylight-488 or -650 labeled in the assay; also called ch1D11 (C43G)

EC50 (mouse B7-H4 [2]): 0.36 µg/mL
B5: humanized 1D11.v1.9 (antibody, V domains shown)
VH: EVQLVQSGAEVKKPGASVKVSCKASGYTFTSYWIGWVRQAPGQGLEWIGDIYPGGGYTNYNEKFKGRVTITRDTSTSTAYLELSSLRSEDTAVYYCARLDGSSYRGAMDSWGQGTLVTVSS
VL: DIQMTQSPSSLSASVGDRVTITCKASQGFNKYVAWYQQKPGKAPKLLIYYTSTLQPGVPSRFSGSGSGRDYTLTISSLQPEDFATYYCLQYGNLLYAFGQGTKVEIKR
notes: also called hu1D11.v1.9; h1D11.v1.9

Kd (human B7-H4 [12]): 0.9 nM
Kd (cynomolgus monkey B7-H4 [13]): 1 nM
Kd (mouse B7-H4 [14]): 2.1 nM
Kd (rat B7-H4 [15]): 1.2 nM
Kd (human B7-H4 [16]): 2 nM
B6: hu1D11.v1.9 varC2 (antibody, V domains shown)
VH: EVQLVQSGAEVKKPGASVKVSCKASGYTFTSYWIGWVRQAPGQGLEWIGDIYPGGGYTNYNEKFKGRVTITRDTSTSTAYLELSSLRSEDTAVYYCARLAGSSYRGAMDSWGQGTLVTVSS
VL: DIQMTQSPSSLSASVGDRVTITCKASQGFNKYVAWYQQKPGKAPKLLIYYTSTLQPGVPSRFSGSGSGRDYTLTISSLQPEDFATYYCLQYGDLLYAFGQGTKVEIKR
notes: IgG1 / kappa; also called h1D11v1.9_VarC2; h1D11v1.9 variant C2

fold binding over the isotype control [11]: 100 fold
Kd (human B7-H4 [6]): 6.6 nM
Kd (cynomolgus monkey B7-H4 [7]): 5.2 nM
Kd (mouse B7-H4 [8]): 13.7 nM
Kd (rat B7-H4 [9]): 4.7 nM
B9: chimeric antibody ch9B9 (antibody, human IgG1, V domains shown)
VH: QVQLQQSGAELMKPGASVKMSCKATGYTFSSYWIEWVKQRPGHGLEWIGEILPGTSITTYNAKFKVKATFTADTSSNTAYMQLSSLTSEDSAVYFCARYYFGSSSFYFDYWGQGTSLTVSS
VL: QAVVTQESALTTSPGDTVTLTCRSSTGAVTTSNYANWVQEKPDHLFTGLIGGTNNRVPGVPARFSGSLIGDKAALTITGAQTEDEAMYFCALWYNNHWVFGGGTKLE
notes: also called antibody 9B9
